# Data published in the nanobody polyreactivity screen of Harvey et al. (2022).
# Test: yeast display, Sf9 membrane polyspecificity reagent, FACS + sequencing; frameworks hold sequencing errors
# Procedure, shortened: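 Nanobodies came from a synthetic yeast display library in Saccharomyces cerevisiae BJ5465, induced with galactose for 36–48 hours and stained for 1 hour at 4 °C with 10% biotinylated, detergent-solubilized Sf9 membrane reagent. Cells were enriched on streptavidin microbeads and then FACS-sorted, with low and high (top ~1%) gates set on anti-HA fluorescence for expression and streptavidin fluorescence for reagent binding. Each polyreactivity label reflects the gate a clone came from. Genes were amplified by colony PCR, sequenced by MiSeq 2 × 250 and filtered by CDR length.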
row,Sequence,polyreactivity (PSR sort gate)
1,QVQHVESGGGLVQAGGSLRLGCPASGIIFIAYAMGWYRQAPGKERELVADISIGGSTNYADSVKGRFTISRDNAKYTVYLQMNSLKPEDTAVYYCAKRPKNKPVLGDYDHWGQGTQVTVSS,low polyreactivity
2,QVQHVESGGGLVQAGGSLRLICAASGFTFHLYAMGWYRQAPGKERELVASITYSGGSTYYADSVKGRFTISRDKAKNTVYLHMNSLKAEDTAFYYCNRYSSSYSYDYWGQATQVTVSS,high polyreactivity
3,QVQHVESGGGLVQAGGSLRLICAASGRIFLRNAMGWYRQAPGKERELVATITSRGGSTYYADAVKGRFTISRDNAKNTVYLQMNRLKPEDTAVYNCAAVPRRYRGFGYVYGGFYYWGQGTQVTVSS,low polyreactivity
4,QVQHVESGGGLVQAGGSLRLICAASGSTFYYNAMGWYRQAPGKERELVAAISFSGGSTYYADSVKGRFTISRDNAKNTVYLQMNSLKPDDTAVYYCNRVYYAFYVYYYSTYDYWGQGTQVTLSS,low polyreactivity
5,QVQHVESGGGLVQAGGSLRLSCAASASTLYRNAMGWYRQAPGKEREFVAAISWSGGSTYYADSVMGRFTISRDNAKNTVYLQMNSLKPEDTAVYYCNADTDRYWPYEYDYWGHGTQVTVSS,low polyreactivity
6,QVQHVESGGGLVQAGGSLRLSCAASGFIFASYTMGWYRQAPGKERELVATISRGGSTYYADSVKGRFTISRDNAKNTVYLQMNSLKPEATAVYYCATDVGKRAGYYGGVYPDFDYWGQGTQVTVSS,low polyreactivity
7,QVQHVESGGGLVQAGGSLRLSCAASGFIFPVNAMGWYRQAPGKERELVAAITYSTGSTYYADSVKGRFTISRDNAKNTVYLQMNSLKPEDTAVYSCAADVPPGEVVTNDYWGQGTQVTVSS,low polyreactivity
8,QVQHVESGGGLVQAGGSLRLSCAASGFISYFYAMGWYRQAPGKERELVPVNTQSGGSTYFADSVKGRFTISRDNAKNTVYLQMNSLKPEDTAVYYCNADTVRDYPFFSVSYYYWGQGTQVTVSS,low polyreactivity
9,QVQHVESGGGLVQAGGSLRLSCAASGFTFARYAMGWYRHAPGKERELVASISSSGDRTNYADSVKGRFTISRDNAKITVYLQMYSLKPEDTAVYYCNADFGYGWYLRYDYWGQGTQVTVSS,high polyreactivity
10,QVQHVESGGGLVQAGGSLRLSCAASGFTFTRYAMGWYRQAPGKERELVAAISRGGTTYADSVKGRFTISRDNAKNTVYLQMNSLKPEDTAVYYCNRLRYGYPQEFGYWGQGTQVTVSS,high polyreactivity
11,QVQHVESGGGLVQAGGSLRLSCAASGFTFVYYAMGWYRQAPGKERELVAAISRSGSRTYYADSVKGRFTISRDNAKKTVYLQMNSLKPEDTAVYYCAVAGYSPYLYRYGYWVQGTQVTVSS,high polyreactivity
12,QVQHVESGGGLVQAGGSLRLSCAASGFTFYIYVMGWYRQAPGKERELVAAITWSGGRTYYADSVKGRFTISRDNAKNTVYLQMNSLKPEDTAVYYCAASYPGLSYHKYEYWGQGTQVTVSS,high polyreactivity
13,QVQHVESGGGLVQAGGSLRLSCAASGGIFYPNAMGWYRQAPGKERELVAAISSGGGSTYYADSVKGRFTISRDNAKNTVYLQMNSLKPEDTSGYYCAASADRLKSDVESDYWGQGTLVTVSS,low polyreactivity
14,QVQHVESGGGLVQAGGSLRLSCAASGIIFPRNAMGRYRQAPGKEREFVAAITLSGGRTYYADSVKGRFTISRDNAKNSVYLQMNSLKPEDTAVYYCAAYGFGPYKGVDYWGQGTQVTVSS,high polyreactivity
15,QVQHVESGGGLVQAGGSLRLSCAASGIIFSEYAMGWYRLAPGKERELVAVISRSGGRTYYADSVKGRFTISRDNAKNTVYFQMNSLKPEDTAVYYCAVVHKTFTGDYWGQGTQVTVSS,high polyreactivity
16,QVQHVESGGGLVQAGGSLRLSCAASGIIFYHNAMGWYRQAPVKERELVASITEIGGSTYYADSVKGLFTISRDNAKSTVYLQMNRLKPEDTAVYYCAAGTLTSFSRYDYWGQGTQVTVSS,low polyreactivity
17,QVQHVESGGGLVQAGGSLRLSCAASGIIFYWYAMGWYRQAPGKERELVAAISRTGGSTYYADSVKGRFTISRDNAKNTVYLQMNSLKPEDTAVYYCAADDGGYWSAGHEYWGQGTQVTVSS,high polyreactivity
18,QVQHVESGGGLVQAGGSLRLSCAASGIISYKNVMGWYRQAPGKERELVAAISGRGGSTYYADSVKGRFTISRDNAKNTVYLQMNSLKPEDTAVYYCAKYPGISGYNYWGQGTQVTVSS,high polyreactivity
19,QVQHVESGGGLVQAGGSLRLSCAASGLIFRYYVKGWYRPAPGKERDLDAGITSSGGYTFYAESVKGRFTISRDNAKNTVYLQMNSLKPDDTAVYYCAARRPYAYARSSRYDYWGQGTQVSVSS,high polyreactivity
20,QVQHVESGGGLVQAGGSLRLSCAASGLTFSQNAMGWYRQPQGQERELVAAISSSGTSTYYADSVKGRFSISRDNAKNTVYLQMNSVKPEDTAVYYCNAPPGTFQWQGHSDYWGQGTQVTVSS,low polyreactivity
21,QVQHVESGGGLVQAGGSLRLSCAASGLTFTAYVMGWYRQAPGKERELVAAIRISGGSTYYADSVKGRFTISRDNAKNTVYLQMKSLQPADTAVYYCATRHRHVTATDSRIGDYWGQGTQVTVSS,low polyreactivity
22,QVQHVESGGGLVQAGGSLRLSCAASGLTFYRYAMGWNRQAPGKERELVAAITSGGSTYYADSVKGRFTISRDNAKNTVYLQMNSLKPEDTAVYYCARQYGYQPERYGYWGQGTQVTVSS,low polyreactivity

row,Sequence,polyreactivity (PSR sort gate)
1,QVQHVESGGGLVQAGGSLRLSCAASGNIFAVYAKGWYRQAPGKERELVAAITTGTNTYADSVKGRFTISRDNAKNTVYLQMNSLKPEDTAVYYCAARYYRPLDYWGQGTQLTVSS,low polyreactivity
2,QVQHVESGGGLVQAGGSLRLSCAASGRIFGYYAMGWYRQAPGKERELVAAISRGGSTNYADSVNGRFTISLDNAKNSVYFQMNSLNPEDTAVYYCAADVASARYYHGYNYWGQGTQVTLSS,high polyreactivity
3,QVQHVESGGGLVQAGGSLRLSCAASGRIFIVNAMGWYRQAPGKERELVAAISYRGGSTYYADSVKGRFTISRDNAKNTVYLQMNSLKPEDTAVYYCAADRYSYLGYPYEYEYWGQGTQVTVSS,low polyreactivity
4,QVQHVESGGGLVQAGGSLRLSCAASGRIFPRYAMGWYGQTPGKERELVADISRSGGSTYYADSVKGRFTISRDNAKNSVYLQMNSLKPEDTAVYYCAASQYRRVKQGNYWGQGTQVTVSS,high polyreactivity
5,QVQHVESGGGLVQAGGSLRLSCAASGRIFQHYPMGSYRQAPGKETEFVAAISSSSGSTYADSVKGRFTISRDNAKNTVYLQMNSLNPEDTAVYYCNRDYMPFKFYGGSHDMEYWGQGTQVTVSS,low polyreactivity
6,QVQHVESGGGLVQAGGSLRLSCAASGRIFSRYAMGWYRQAPGKERELVAAITSGGSTYYADSVKGRFTISRDNAKNTVYLQMNSLKPEDTAVSYCATRYRFGSYHSIYDYWGQGTQVTVSS,high polyreactivity
7,QVQHVESGGGLVQAGGSLRLSCAASGRIFVPYVMGWYRQAPGKERELVASISDSDTSTYDADSVKGRFTISRDNAKTTVYLQMNSLKPEDTAVYYCNVDYWGKGTQVTVSS,low polyreactivity
8,QVQHVESGGGLVQAGGSLRLSCAASGRIFVRNAMGWYRQARGKERELVADITNGGSTNYADSVKGRFTISRDNAKNTVYLQMNSLKPEDTAVYYCAVERYRYPFDYWGQGTQVTVSS,low polyreactivity
9,QVQHVESGGGLVQAGGSLRLSCAASGRIFWYYAMGWYRQAPGKERELVAASTRGGITTYADSVKGRYTISRDNAKNTVYLQMNSLKPEDTAVYYCNAVRWYGRMDYWGQGTQVTVSS,low polyreactivity
10,QVQHVESGGGLVQAGGSLRLSCAASGRIIWWYAMRRYRQPPGKERELVAVIDDSVGITYFADSVKGRFTISRDNAKNTVYLQMNSLKPVDTAVNYCARNVNAQKVLGGFDSWGKGTQVTVSS,low polyreactivity
11,QVQHVESGGGLVQAGGSLRLSCAASGRIMARNAMGWYRQAPGKERELVADISYSGGRTYYADSVKGRFTISRDNSKNTVYFQMNRLKQEDTAVYYCADSRSSRTYHDDYWGQGTQVTVSS,high polyreactivity
12,QVQHVESGGGLVQAGGSLRLSCAASGRIYFAYAMGWSRQAPGKERELVASITSGGSTNYADSVKGRFTISRDNGKNTLYLQMNSLKPEDTAVYYCAARSRFSNLYGRFYYWGQGTQVTVSS,high polyreactivity
13,QVQHVESGGGLVQAGGSLRLSCAASGRTFAGYAMGWYRQAPGKEWELVSGITRGVITNYADSVKGRFTISRDNAKNTVYLQMNSLKPEDTAVYSCNARTFPVRLYTPRYGYWGQGTQVTVSS,high polyreactivity
14,QVQHVESGGGLVQAGGSLRLSCAASGRTFDSYAMGWYRQAPGKERELVAAIYADSVKGRFTISRDNAKNTVYLQMNSLKPEDTAVYYCAAETYSGQTYLGEYDYWGQGTQVTVSS,low polyreactivity
15,QVQHVESGGGLVQAGGSLRLSCAASGRTFDYYAMGWYRQAPGKERELVASIRSSGRTTYADSVKGRFTISRDNAKNTDYLQMNSRKPEDTAVYYCAAQWPGWWGYDYWGQGTQVTVSS,low polyreactivity
16,QVQHVESGGGLVQAGGSLRLSCAASGRTFGGNAMGWYRQAPGKERELVAAISKSGGRTYYADSVKGRFTISRDNAKNTVYLQMNSLKPEDTAVYYCNKVLSVSQAGGFDYWGQGTQVTVSS,high polyreactivity
17,QVQHVESGGGLVQAGGSLRLSCAASGRTFGINALGWYSQAPGNESELVADISGDGGNTYYADSVKGRFTISRDNAKNTVFLQMNSLKPEDTAVYFCATRYEKFRYDYWGQGTQVTVSS,low polyreactivity
18,QVQHVESGGGLVQAGGSLRLSCAASGRTFNGYAMGWYRQAPGKERELVAAIRSTTGSTYYADSVKGRFTISRDNAKNTVYLQMNSLKPEETAVYYCAAAYPFYADMDYCGQGTQVTVSS,low polyreactivity
19,QVQHVESGGGLVQAGGSLRLSCAASGRTFPGNAMGWYRQAPGKERELVAAISSSGGSTHYADSVKGRFTFSRDNAKNTVYLQMNSRKPEDSAVYYCNARSKGYSYRYYYWGQGTQVTVSS,high polyreactivity
20,QVQHVESGGGLVQAGGSLRLSCAASGRTFTYNAMGWYRQAPGKERELVAAISWNGGRTYYADSVKGRFTISRDNAKNTVYLEMNSLKPEETAVYYCNAVSYNLAAYDYWGQGTQVTVSS,high polyreactivity
21,QVQHVESGGGLVQAGGSLRLSCAASGSIFASNAMGWYRQPPGKEREFVAAISSSGTRTYSADSVKGRFTISRDNAKNTVYLQLNSLKQEDTAVYYCATRRGYDSVYYFYTLWSYYWGQGTQVTVSS,low polyreactivity
